# B1: PPP2R2C (parent)
# chain: YSSSKGSLRLCDMRAAALCDKHSK
# Variants of: B1
# Assay: protein stability index of a GFP-peptide fusion (GPS, HEK-293T) (PSI 1-6); higher = more stable
# Conditions: c terminus: a fixed tail appended
# 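Also: lentivirally expressed fusions sorted by FACS into six bins by GFP to DsRed ratio, PSI derived from sequencing read proportions per bin multiplied by bin number.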
row,Variant,protein stability index
1,D20Y,1.96
2,D20A,1.64
3,D20F,2.19
4,D20E,1.97
5,D20V,2.58
6,D20S,1.81
7,D20M,1.98
8,D20P,2.25
9,D20W,2.31
10,D20T,2.18
11,D20I,2.17
12,D20H,2.64
13,D20Q,2.33
14,H22A,2.02
15,H22F,1.53
16,H22I,2.22
17,H22D,1.79
18,H22Y,1.91
19,H22W,2.05
20,H22S,1.62
21,H22L,1.6
22,H22K,1.54
23,H22M,1.7
24,H22E,3.04

row,Variant,protein stability index
1,R14M,2.29
2,R14D,1.55
3,R14Y,2.45
4,R14W,1.69
5,R14G,2.13
6,R14N,2.48
7,R14A,2.03
8,R14V,1.81
9,R14L,2.18
10,R14C,2.89
11,A17E,2.16
12,A17Y,2.06
13,A17I,1.39
14,A17Q,3.18
15,A17R,1.78
16,A17F,2.36
17,R9V,2.91
18,R9P,3.11
19,R9G,1.9
20,R9I,1.7
21,R9L,3.61
22,R9M,1.9
23,R9H,2.42
24,R9N,3.45

row,Variant,protein stability index
1,R9Q,3.3
2,S2G,2.46
3,S2T,2
4,S2Y,2.94
5,S2C,1.92
6,S2E,3.84
7,S2K,3.58
8,S2M,1.72
9,S2Q,1.94
10,S2P,2.5
11,S2I,1.54
12,S2A,2.44
13,S2L,2.52
14,S2F,2.8
15,S2R,2.98
16,S2N,3.28
17,S3C,3.48
18,S3T,2.11
19,S3A,2.93
20,S3F,2.39
21,S3I,3.06
22,S3L,2.7
23,S3H,2.52
24,S3N,2.48

row,Variant,protein stability index
1,S3Y,1.83
2,S3P,2.79
3,S3D,2.92
4,S3R,2.29
5,S3G,1.95
6,S3Q,2.45
7,S3E,2.53
8,L10G,3.53
9,L10E,4.47
10,L10C,2.95
11,L10T,3.35
12,L10R,3.16
13,L10W,2.21
14,L10F,2.22
15,L10Q,3.79
16,L10H,3.04
17,L10Y,2.02
18,L10P,3.52
19,C19E,1.62
20,C19T,1.71
21,C19V,1.4
22,C19Y,2.01
23,C19Q,1.69
24,C19P,1.84

row,Variant,protein stability index
1,C19L,1.55
2,C19W,1.69
3,C19G,1.25
4,C19R,2.06
5,C19M,1.68
6,C19F,2.32
7,C19K,2.14
8,C19S,1.73
9,C19I,2.03
10,C19A,1.74
11,C19N,1.58
12,C19D,2.3
13,Y1K,3.79
14,Y1S,3.74
15,Y1I,3.73
16,Y1L,3.65
17,Y1R,3.81
18,Y1T,4.13
19,Y1H,3.72
20,Y1M,3.54
21,Y1V,3.56
22,Y1W,2.92
23,Y1Q,3.95
24,Y1A,3.93

row,Variant,protein stability index
1,Y1D,4.63
2,Y1P,3.65
3,K5N,1.43
4,K5L,1.93
5,K5D,2.06
6,K5P,2.03
7,K5S,2.27
8,K5I,2.19
9,K5V,1.55
10,K5F,1.84
11,K5A,1.65
12,K5G,1.49
13,K5C,1.68
14,K5E,1.73
15,L18K,1.73
16,L18A,2.15
17,L18I,1.96
18,L18H,2.03
19,L18W,1.44
20,L18M,1.13
21,L18D,1.48
22,L18E,1.9
23,L18Y,1.8
24,L18P,1.58

row,Variant,protein stability index
1,L18Q,2.17
2,L18R,1.96
3,L18N,1.65
4,L18G,1.52
5,C11Y,2.75
6,C11K,3.07
7,C11G,2.92
8,C11Q,2.97
9,C11R,3.31
10,C11D,3.74
11,C11T,2.88
12,C11M,2.29
13,C11V,1.8
14,C11L,2.36
15,C11W,1.2
16,C11I,1.42
17,C11F,1.67
18,S7V,2.24
19,S7W,3.69
20,S7A,2.9
21,S7E,1.56
22,S7T,1.8
23,S7M,1.76
24,S7K,1.07

row,Variant,protein stability index
1,S7Q,2.04
2,S7L,1.49
3,S7R,2.04
4,S7I,1.34
5,S7C,1.76
6,D12K,2.54
7,D12A,2.32
8,D12S,2.29
9,D12G,1.93
10,D12N,2.63
11,D12Q,2.76
12,D12E,2.71
13,D12R,2.36
14,D12M,1.78
15,D12P,2.25
16,K24L,2.13
17,K24R,1.9
18,K24W,2.51
19,K24C,1.21
20,K24M,2.11
21,K24S,1.65
22,K24E,1.96
23,K24P,1.9
24,K24F,1.36

row,Variant,protein stability index
1,M13V,2.07
2,M13P,2.21
3,M13I,2.08
4,M13K,2.08
5,M13R,1.68
6,M13N,2.05
7,M13W,1.61
8,M13G,2
9,M13F,1.46
10,M13C,1.73
11,M13E,2.49
12,M13H,1.56
13,M13S,1.65
14,M13D,2.37
15,A16C,2.56
16,A16Q,2.18
17,A16F,2.2
18,A16W,1.23
19,A16E,2.28
20,A16L,1.3
21,A16M,1.5
22,A16P,1.64
23,A16D,2.85
24,A16N,2.05

row,Variant,protein stability index
1,A16I,1.84
2,A15V,1.6
3,A15L,1.54
4,A15Y,2.34
5,A15H,1.78
6,A15I,1.96
7,A15P,2.43
8,A15E,2.61
9,A15R,1.38
10,A15G,2.24
11,S4K,1.34
12,S4P,2.57
13,S4G,2.87
14,S4Q,2.32
15,S4R,2.11
16,S4A,2.44
17,S4N,2.32
18,S4D,2.96
19,S4C,1.38
20,S23L,1.93
21,S23I,2.01
22,S23W,1.35
23,S23N,1.43
24,S23K,1.82

row,Variant,protein stability index
1,S23F,2.57
2,S23T,1.88
3,S23G,1.76
4,S23R,1.78
5,S23M,2.19
6,S23Q,1.85
7,S23V,2.4
8,S23C,1.12
9,L8I,1.78
10,L8C,2.5
11,L8W,2.39
12,L8D,2.76
13,L8Y,1.36
14,L8F,2.5
15,L8S,2.02
16,L8V,1.95
17,L8R,1.51
18,L8M,1.79
19,L8P,2.27
20,L8H,2.64
21,L8T,1.97
22,L8G,2.19
23,K21S,2.21
24,K21V,2.63

row,Variant,protein stability index
1,K21P,2.79
2,K21Y,1.95
3,K21Q,1.82
4,K21M,1.96
5,K21I,1.48
6,K21D,1.78
7,K21T,1.86
8,K21N,1.9
9,K21F,1.95
10,K21A,2.35
11,G6L,2.18
12,G6Y,1.52
13,G6V,2.21
14,G6D,2.73
15,G6I,2.31
16,G6M,1.85
17,G6R,2.05
18,G6E,2.68
19,G6H,2.04
20,G6W,1.76
21,G6K,2.2
22,G6P,2.48
